Patent US9205136B2, “Human aminoacyl-tRNA synthetase polypeptides useful for the regulation of angiogenesis” (THE SCRIPPS RESEARCH INSTITUTE, priority 2000, dated 2015)

Experiments:
chick CAM = experiment: Inhibition of VEGF165-induced or mini TyrRS-induced angiogenesis in chick CAM; assay type: in vivo; conditions: 3 μg inhibitor; for inhibition of VEGF165-induced angiogenesis in chick CAM: 25 ng VEGF165, 72 hours; for inhibition of mini TyrRS-induced angiogenesis in chick CAM: 250 ng mini TyrRS, 72 hours
Protocol: In vivo angiogenesis assays were conducted in chick chorioallantoic membrane (CAM) (Nicolaou et al., 1998, Bioorg. Med. Chem. 6:1185-208). Ten-day-old chick embryos were purchased from Mcintyre Poultry (Lakeside, Calif.) and were incubated at 37° C. and 70% humidity. A small hole was made with a small crafts drill (Dremel, Emerson Electric, Racine, Wis.) directly over the air sac at the end of the egg. The embryos were candled to determine a location to drill a second hole directly over embryonic blood vessels. […] A window was cut in the eggshell over the dropped CAM, exposing the CAM to direct access for experimental manipulation. Cortisone acetate-treated 5 mm filter disks were soaked with a particular protein sample (25 ng of VEGF165 or 250 ng of a given TyrRS molecule) and the filter disks added directly to the CAMs, which were relatively devoid of preexisting blood vessels. The windows were sealed with sterile tape and incubated at 37° C. At 0, 24, and 48 hours following incubation, 3 μg of […] (IP-10) (R & D Systems, Minneapolis, Minn.) was topically applied to the filter disks. After 72 hours, the CAM tissue associated with the filter disk was harvested and quantified using a stereomicroscope. Angiogenesis was assessed as the number of visible blood vessel branch points within the defined area of the filter disks. Each determination shown in FIG. 17 represents the mean from 5-8 embryos.
The angiostatic activity of human full-length TrpRS and human mini TrpRS was also analyzed in in vivo angiogenesis assays conducted in chick CAM. In vivo angiogenesis assays were performed as described in Example 12 with 3 μg of full-length TrpRS or mini TrpRS added to VEGF165-induced or mini TyrRS-induced CAM tissue.

HUVEC [1] = experiment: Inhibition of VEGF165-induced cell proliferation; assay type: cell-based, human; conditions: 2 μM TrpRS, 2 nM VEGF165, 72 hours
Protocol: The angiostatic activity of TrpRS was first evaluated in experiments testing the ability of human full-length TrpRS and human mini TrpRS to inhibit human VEGF165-induced cell proliferation. Tissue culture-treated 96-well plates (Corning Costar Corp., Cambridge, Mass.) were coated with 0.1% gelatin (Sigma) overnight. Cells were then seeded in the gelatinized plates at a density of 5×10^3 cells per well in DMEM medium (Gibco-BRL) containing heat-inactivated fetal bovine serum (FBS) (10%, Sigma) and penicillin/streptomycin (100 units/mL-100 μg/mL, Sigma). The following day, the cells were treated with 2 μM of a given TrpRS in the presence of 2 nM VEGF165. After 72 hours of incubation, assays were performed by using the […] 96® aqueous one-solution cell proliferation assay kit (Promega, Madison, Wis.). Results of the inhibition assay are shown in FIG. 18 as the percentage of net proliferation of VEGF165. Each determination shown represents the mean of five experiments.

HUVEC [2] = experiment: Inhibition of VEGF165-induced or mini TyrRS-induced HUVEC migration; assay type: cell-based, human; conditions: for inhibition of VEGF165-induced HUVEC chemotaxis / inhibition of mini TyrRS-induced HUVEC chemotaxis: 500 nM TrpRS; for inhibition of VEGF165-induced HUVEC chemotaxis: 0.5 nM VEGF165; for inhibition of mini TyrRS-induced HUVEC chemotaxis: 50 nM mini TyrRS
Protocol: Cell migration assays were performed using the modified Boyden chamber (6.5 mm Transwells) with polycarbonate membranes (8.0 μm pore size) (Costar Corp., Cambridge, Mass.) (Masood et al., 1999, Blood 93:1038-44). Wells were coated overnight with 25 μg/mL human fibronectin (Biosource International, Camarillo, Calif.) in PBS and then allowed to air-dry. HUVECs were suspended in Dulbecco's modified Eagle's medium (DMEM) (Gibco-BRL, Gaithersburg, Md.) containing 0.1% BSA (Sigma) and 2×10^5 cells per well were added to the upper chamber. The chemotactic stimulus (50 nM of a given TyrRS molecule or 0.5 nM of human vascular endothelial growth factor-165 (VEGF165) (Biosource International, Camarillo, Calif.)) was placed in the lower chamber, and the cells were allowed to migrate for 6 hours at 37° C. in a 6% CO2 incubator. After incubation, non-migrant cells were removed from the upper face of the Transwell membrane with a cotton swab and migrant cells, those attached to the lower face, were fixed in methanol and visualized with the HEMACOLOR® stain set (EM Diagnostic Systems, Gibbstown, N.J.). Migrating cells were counted in high-power fields (HPFs). HUVECs were suspended in media with the inhibitor for 30 minutes before placement in the chamber. Each determination shown in FIG. 16 represents the average of nine HPF measurements.
The angiostatic activity of TrpRS was next evaluated in experiments testing the ability of human full-length TrpRS and human mini TrpRS to inhibit human VEGF165-induced or human mini TyrRS-induced cell migration. Cell migration assays were performed as described in Example 11 with full-length TrpRS or mini TrpRS added to VEGF165-induced or mini TyrRS-induced HUVEC samples. HUVEC samples were treated with 0.5 nM VEGF165, 50 nM mini TyrRS, and 500 nM of a given TrpRS. Four measurements of chemotaxis were done for each protein. Each determination shown in FIG. 19 represents the average of nine HPF measurements. […] In contrast, human full-length TrpRS had no effect on VEGF165-induced or mini TyrRS-induced HUVEC chemotaxis.

Molecule	inhibition of VEGF165-induced angiogenesis in chick CAM (chick CAM)	inhibition of mini TyrRS-induced angiogenesis in chick CAM (chick CAM)	inhibition of VEGF165-induced cell proliferation (HUVEC [1])	inhibition of VEGF165-induced HUVEC chemotaxis (HUVEC [2])	inhibition of mini TyrRS-induced HUVEC chemotaxis (HUVEC [2])	inhibition of HUVEC migration (HUVEC [2]; as described in Example 14, inducer not stated)
full-length TrpRS: recombinant human tryptophanyl-tRNA synthetase, 471 amino acid residues (protein, His6 tag; Human full-length TrpRS in pET20B, recombinant human tryptophanyl-tRNA synthetase, 471 amino acid residues) MPNSEPASLLELFNSIATQGELVRSLKAGNASKDEIDSAVKMLVSLKMSYKAAAGEDYKADCPPGNPAPTSNHGPDATEAEEDFVDPWTVQTSSAKGIDYDKLIVRFGSSKIDKELINRIERATGQRPHHFLRRGIFFSHRDMNQVLDAYENKKPFYLYTGRGPSSEAMHVGHLIPFIFTKWLQDVFNVPLVIQMTDDEKYLWKDLTLDQAYGDAVENAKDIIACGFDINKTFIFSDLDYMGMSSGFYKNVVKIQKHVTFNQVKGIFGFTDSDCIGKISFPAIQAAPSFSNSFPQIFRDRTDIQCLIPCAIDQDPYFRMTRDVAPRIGYPKPALLHSTFFPALQGAQTKMSASDPNSSIFLTDTAKQIKTKVNKHAFSGGRDTIEEHRQFGGNCDVDVSFMYLTFFLEDDDKLEQIRKDYTSGAMLTGELKKALIEVLQPLIAEHQARRKEVTDEIVKEFMTPRKLSFDFQKLAAALEHHHHHH	no observable angiostatic activity	no observable angiostatic activity	exhibited no angiostatic activity	had no effect	had no effect	
mini TrpRS: truncated TrpRS, residues 48-471 of full-length TrpRS (protein, His6 tag; Human mini TrpRS in pET20B, truncated TrpRS, residues 48-471 of full-length TrpRS) MSYKAAAGEDYKADCPPGNPAPTSNHGPDATEAEEDFVDPWTVQTSSAKGIDYDKLIVRFGSSKIDKELINRIERATGQRPHHFLRRGIFFSHRDMNQVLDAYENKKPFYLYTGRGPSSEAMHVGHLIPFIFTKWLQDVFNVPLVIQMTDDEKYLWKDLTLDQAYGDAVENAKDIIACGFDINKTFIFSDLDYMGMSSGFYKNVVKIQKHVTFNQVKGIFGFTDSDCIGKISFPAIQAAPSFSNSFPQIFRDRTDIQCLIPCAIDQDPYFRMTRDVAPRIGYPKPALLHSTFFPALQGAQTKMSASDPNSSIFLTDTAKQIKTKVNKHAFSGGRDTIEEHRQFGGNCDVDVSFMYLTFFLEDDDKLEQIRKDYTSGAMLTGELKKALIEVLQPLIAEHQARRKEVTDEIVKEFMTPRKLSFDFQKLAAALEHHHHHH	inhibited	inhibited	able to inhibit human VEGF165-induced cell proliferation	inhibited	inhibited	
supermini TrpRS: residues 71-471 of full-length TrpRS, major PMN elastase fragment (protein, His6 tag; Human supermini TrpRS in pET20B, residues 71-471 of full-length TrpRS, major PMN elastase fragment) MSNHGPDATEAEEDFVDPWTVQTSSAKGIDYDKLIVRFGSSKIDKELINRIERATGQRPHHFLRRGIFFSHRDMNQVLDAYENKKPFYLYTGRGPSSEAMHVGHLIPFIFTKWLQDVFNVPLVIQMTDDEKYLWKDLTLDQAYGDAVENAKDIIACGFDINKTFIFSDLDYMGMSSGFYKNVVKIQKHVTFNQVKGIFGFTDSDCIGKISFPAIQAAPSFSNSFPQIFRDRTDIQCLIPCAIDQDPYFRMTRDVAPRIGYPKPALLHSTFFPALQGAQTKMSASDPNSSIFLTDTAKQIKTKVNKHAFSGGRDTIEEHRQFGGNCDVDVSFMYLTFFLEDDDKLEQIRKDYTSGAMLTGELKKALIEVLQPLIAEHQARRKEVTDEIVKEFMTPRKLSFDFQKLAAALEHHHHHH	capable of inhibiting	capable of inhibiting	capable of inhibiting HUVEC proliferation and migration			capable of inhibiting HUVEC proliferation and migration
